Among the data in publication PMC9304885 are Kd values, retold here.

As usually defined, the Kd is the constant that tells how readily two partners part at equilibrium.

This experiment addresses recombinant M. hyopneumoniae mhp390 (rMhp390) (Mycoplasma hyopneumoniae). The experiment can be described thus: BLI; ForteBio Octet Red96; biotinylated rMhp390 immobilised on streptavidin (SA) biosensors, rNOD1 in solution; PBST (PBS, 0.02% Tween20); association 300 s, dissociation 600 s; 1:1 binding model.

Consider “recombinant NOD1 (rNOD1), nucleotide-binding oligomerization domain 1 (receptor)”, for which the Kd was 8.14 µM.
